Data published in paper PMC2234252 (The Journal of Cell Biology, 2008).
Positions count from the first letter of the chain named. Names and notes keep the numbering of the source.

T1: hZwint-1 (human, UniProt O95229 1-277)
T1 sequence (looked up): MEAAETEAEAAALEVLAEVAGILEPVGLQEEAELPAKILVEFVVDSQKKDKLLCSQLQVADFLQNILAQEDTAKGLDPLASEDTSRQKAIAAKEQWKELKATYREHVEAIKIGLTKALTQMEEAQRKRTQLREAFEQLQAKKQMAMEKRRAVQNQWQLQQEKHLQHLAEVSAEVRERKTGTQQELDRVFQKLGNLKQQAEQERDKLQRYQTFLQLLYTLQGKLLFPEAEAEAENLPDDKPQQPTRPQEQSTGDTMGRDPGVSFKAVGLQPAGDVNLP

B1: hZW10 DI69AA (natural protein, human, UniProt O43264 1-779, looked up)
chain: MASFVTEVLAHSGRLEKEDLGTRISRLTRRVEEIKGEVCNMISKKYSEFLPSMQSAQGLITQVDKLSEAADLLKSRIESEVRRDLHVSTGEFTDLKQQLERDSVVLSLLKQLQEFSTAIEEYNCALTEKKYVTGAQRLEEAQKCLKLLKSRKCFDLKILKSLSMELTIQKQNILYHLGEEWQKLIVWKFPPSKDTSSLESYLQTELHLYTEQSHKEEKTPMPPISSVLLAFSVLGELHSKLKSFGQMLLKYILRPLASCPSLHAVIESQPNIVIIRFESIMTNLEYPSPSEVFTKIRLVLEVLQKQLLDLPLDTDLENEKTSTVPLAEMLGDMIWEDLSECLIKNCLVYSIPTNSSKLQQYEEIIQSTEEFENALKEMRFLKGDTTDLLKYARNINSHFANKKCQDVIVAARNLMTSEIHNTVKIIPDSKINVPELPTPDEDNKLEVQKVSNTQYHEVMNLEPENTLDQHSFSLPTCRISESVKKLMELAYQTLLEATTSSDQCAVQLFYSVRNIFHLFHDVVPTYHKENLQKLPQLAAIHHNNCMYIAHHLLTLGHQFRLRLAPILCDGTATFVDLVPGFRRLGTECFLAQMRAQKGELLERLSSARNFSNMDDEENYSAASKAVRQVLHQLKRLGIVWQDVLPVNIYCKAMGTLLNTAISEVIGKITALEDISTEDGDRLYSLCKTVMDEGPQVFAPLSEESKNKKYQEEVPVYVPKWMPFKELMMMLQASLQEIGDRWADGKGPLAAAFSSSEVKALIRALFQNTERRAAALAKIK
B2: hZW10 SE79AA (natural protein, human, UniProt O43264 1-779, looked up)
chain: B1 chain with A69D, A70I, S79A, E80A
B3: hZW10 S55A (natural protein, human, UniProt O43264 1-779, looked up)
chain: B1 chain with S55A, A69D, A70I
B4: hZW10 SE67AA (natural protein, human, UniProt O43264 1-779, looked up)
chain: B1 chain with S67A, E68A, A69D, A70I
B5: hZW10 GLI58AAA (natural protein, human, UniProt O43264 1-779, looked up)
chain: B1 chain with G58A, L59A, I60A, A69D, A70I

biological target: T1, hZwint-1; experiment: two-hybrid

β-galactosidase assay | Binder
1.2 | B1
131 | B2
449 | B3
1.8 | B4
2.7 | B5
